B1: 9H9-7A3 LH (bispecific antibody)
heavy: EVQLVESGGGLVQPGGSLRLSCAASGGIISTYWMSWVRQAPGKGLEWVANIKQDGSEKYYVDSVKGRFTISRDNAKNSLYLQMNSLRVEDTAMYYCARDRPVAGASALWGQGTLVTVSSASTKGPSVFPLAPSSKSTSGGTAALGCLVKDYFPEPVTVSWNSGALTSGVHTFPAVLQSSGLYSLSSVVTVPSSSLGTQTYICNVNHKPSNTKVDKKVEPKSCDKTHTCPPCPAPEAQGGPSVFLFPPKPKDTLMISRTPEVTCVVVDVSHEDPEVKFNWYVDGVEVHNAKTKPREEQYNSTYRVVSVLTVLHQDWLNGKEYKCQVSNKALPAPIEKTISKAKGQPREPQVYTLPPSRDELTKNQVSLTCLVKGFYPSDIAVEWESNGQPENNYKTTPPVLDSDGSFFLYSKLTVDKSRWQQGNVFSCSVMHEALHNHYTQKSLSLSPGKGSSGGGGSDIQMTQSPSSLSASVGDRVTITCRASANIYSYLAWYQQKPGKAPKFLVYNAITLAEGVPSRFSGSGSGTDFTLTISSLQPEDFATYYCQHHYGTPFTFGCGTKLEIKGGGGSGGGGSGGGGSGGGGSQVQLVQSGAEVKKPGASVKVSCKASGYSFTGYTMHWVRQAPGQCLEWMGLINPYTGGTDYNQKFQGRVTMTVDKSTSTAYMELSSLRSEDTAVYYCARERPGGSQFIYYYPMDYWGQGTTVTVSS
light: DIQMTQSPSTLSASVGDRVTITCRASQSISGWLAWYQQKPGKAPKLLIYKASSLESGVPSRFSGSGSGTEFTLTISSLQPDDFATYYCQQYYGSSRTFGQGTNVEIKRTVAAPSVFIFPPSDEQLKSGTASVVCLLNNFYPREAKVQWKVDNALQSGNSQESVTEQDSKDSTYSLSSTLTLSKADYEKHKVYACEVTHQGLSSPVTKSFNRGEC
B2: 9H9-7A3 HL (bispecific antibody)
heavy: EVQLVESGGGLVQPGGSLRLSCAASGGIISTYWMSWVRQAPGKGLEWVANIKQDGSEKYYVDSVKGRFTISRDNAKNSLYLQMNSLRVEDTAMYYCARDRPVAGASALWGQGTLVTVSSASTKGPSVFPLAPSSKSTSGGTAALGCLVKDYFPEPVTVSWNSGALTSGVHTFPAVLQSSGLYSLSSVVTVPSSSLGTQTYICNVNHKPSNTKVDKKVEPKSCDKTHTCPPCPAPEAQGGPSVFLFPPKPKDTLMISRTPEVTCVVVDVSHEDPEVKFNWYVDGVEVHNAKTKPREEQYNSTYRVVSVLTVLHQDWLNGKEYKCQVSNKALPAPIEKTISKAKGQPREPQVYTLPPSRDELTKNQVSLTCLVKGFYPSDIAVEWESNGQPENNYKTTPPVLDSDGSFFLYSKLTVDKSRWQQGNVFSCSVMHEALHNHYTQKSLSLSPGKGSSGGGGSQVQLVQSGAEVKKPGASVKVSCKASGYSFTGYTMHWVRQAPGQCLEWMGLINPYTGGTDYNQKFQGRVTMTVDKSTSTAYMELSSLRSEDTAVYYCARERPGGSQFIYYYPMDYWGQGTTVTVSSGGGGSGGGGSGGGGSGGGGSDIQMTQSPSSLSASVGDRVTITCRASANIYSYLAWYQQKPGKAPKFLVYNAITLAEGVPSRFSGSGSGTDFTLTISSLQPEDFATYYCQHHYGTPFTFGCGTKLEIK
light: B1 light
B3: 9H9-7B1 HL (bispecific antibody)
heavy: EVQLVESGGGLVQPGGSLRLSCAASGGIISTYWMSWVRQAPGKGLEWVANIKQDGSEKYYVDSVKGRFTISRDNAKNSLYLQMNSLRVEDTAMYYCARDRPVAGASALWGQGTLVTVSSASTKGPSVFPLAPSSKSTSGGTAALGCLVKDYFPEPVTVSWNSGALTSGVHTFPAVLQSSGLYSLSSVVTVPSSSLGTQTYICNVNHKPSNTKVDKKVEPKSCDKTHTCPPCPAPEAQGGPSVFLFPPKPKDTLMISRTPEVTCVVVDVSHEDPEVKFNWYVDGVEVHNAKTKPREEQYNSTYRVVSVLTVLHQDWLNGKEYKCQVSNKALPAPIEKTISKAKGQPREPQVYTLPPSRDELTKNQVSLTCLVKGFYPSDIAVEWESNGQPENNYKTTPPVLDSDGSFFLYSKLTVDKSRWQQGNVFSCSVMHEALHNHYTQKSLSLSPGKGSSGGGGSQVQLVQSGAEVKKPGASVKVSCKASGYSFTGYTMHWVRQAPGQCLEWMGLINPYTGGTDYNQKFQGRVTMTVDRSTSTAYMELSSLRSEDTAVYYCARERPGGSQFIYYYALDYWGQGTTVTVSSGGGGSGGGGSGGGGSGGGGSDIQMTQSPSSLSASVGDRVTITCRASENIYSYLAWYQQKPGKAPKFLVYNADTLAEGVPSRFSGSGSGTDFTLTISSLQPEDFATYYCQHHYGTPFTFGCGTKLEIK
light: B1 light
B4: 9H9-7B1 LH (bispecific antibody)
heavy: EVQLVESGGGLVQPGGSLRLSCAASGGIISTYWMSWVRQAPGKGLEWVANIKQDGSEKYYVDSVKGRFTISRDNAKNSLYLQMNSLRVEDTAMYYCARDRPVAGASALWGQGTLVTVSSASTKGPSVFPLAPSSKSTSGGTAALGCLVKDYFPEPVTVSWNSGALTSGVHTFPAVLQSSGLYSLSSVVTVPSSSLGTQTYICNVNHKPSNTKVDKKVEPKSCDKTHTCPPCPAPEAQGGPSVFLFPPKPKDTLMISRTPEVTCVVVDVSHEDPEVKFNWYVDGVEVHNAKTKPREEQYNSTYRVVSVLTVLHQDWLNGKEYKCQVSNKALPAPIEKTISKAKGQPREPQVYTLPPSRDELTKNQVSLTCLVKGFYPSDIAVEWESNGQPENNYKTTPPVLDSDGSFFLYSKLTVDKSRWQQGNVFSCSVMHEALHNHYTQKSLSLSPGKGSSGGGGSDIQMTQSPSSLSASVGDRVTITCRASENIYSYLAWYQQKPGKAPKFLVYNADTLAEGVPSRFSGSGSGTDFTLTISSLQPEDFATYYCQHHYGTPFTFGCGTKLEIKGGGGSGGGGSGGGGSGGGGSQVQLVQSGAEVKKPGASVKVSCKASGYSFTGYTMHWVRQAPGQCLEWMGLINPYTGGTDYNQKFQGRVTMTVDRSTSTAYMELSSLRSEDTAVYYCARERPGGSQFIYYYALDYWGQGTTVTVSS
light: B1 light

For the assay, the target named is human ILT4-HIS. Description: BLI (Octet).
Turning to B1, the affinity, expressed as Kd, was 0.282 nM. As for B2, the Kd (commonly the constant that tells how readily two partners part at equilibrium) was 0.308 nM. For B3, the affinity, expressed as Kd, was 0.139 nM. On to B4, for which the Kd is 0.056 nM.

(Values after patent US20240417459A1 (published 2024).)
